# Assay results taken from patent US20230220031A1 (Stanford University, published 2023).
# B1: human p40 tetramer (biotinylated human IL-12p40 on streptavidin-AF647) (ligand)
# chain: IWELKKDVYVVELDWYPDAPGEMVVLTCDTPEEDGITWTLDQSSEVLGSGKTLTIQVKEFGDAGQYTCHKGGEVLSHSLLLLHKKEDGIWSTDILKDQKEPKNKTFLRCEAKNYSGRFTCWWLTTISTDLTFSVKSSRGSSDPQGVTCGAATLSAERVRGDNKEYEYSVECQEDSACPAAEESLPIEVMVDAVHKLKYENYTSSFFIRDIIKPDPPKNLQLKPLKNSRQVEVSWEYPDTWSTPHSYFSLTFCVQVQGKSKREKKDRVFTDKTSATVICRKNASISVRAQDRYYSSSWSEWASVPCSGLNDIFEAQKIEWHEHHHHHH
# modifications: biotinylated
# notes: also called human p40 tetramers
# B2: human IL-12p40 (23-328) with C-terminal AviTag and 6x His (ligand)
# chain: B1 chain
# notes: Immobilized partner in the SPR experiment; also called interleukin-12 subunit p40
# Tests used:
# [1] = target: T1, human IL-12Rβ1 on human T cells and NK cells (human, UniProt P42701 24-662); experiment: flow cytometry, 200 nM human p40 tetramer (streptavidin-AF647) against streptavidin alone, human PBMC: NK cells and CD8+ T cells ex vivo and CD8+ T cell blasts
# T1 construct: whole, on cells
# [2] = target: T2, human IL-12Rβ1 (soluble, SPR analyte) (UniProt P42701 24-545, limits assumed); experiment: SPR, IL-12Rβ1 over immobilized IL-12p40, steady state affinity model
# T2 construct: also called IL-12 receptor beta 1
Binder,binding result [1],Kd [2] [nM]
B1,binds,
B2,,1700
